# Reference: article PMC8902820
# Columns and labels:
# FcγRIIB (SPR assay) = FcγRIIB (SPR assay) (UniProt P31994); test: SPR; FcγRIIA, FcγRIIB, FcγRIIIA; KD determined by the analyte concentration at which half of the ligands are occupied at equilibrium
# FcγRIIA H131 (SPR assay) = FcγRIIA H131 (SPR assay) (UniProt P12318); test: as above
# FcγRIIIA V158 = test: as above
# FcγRIIA R131 (SPR assay) = test: as above
# FcγRIIIA F158 = FcγRIIIA F158 (UniProt P08637); test: as above
# FcγRI (SPR assay) = FcγRI (SPR assay) (UniProt P12314); test: SPR; FcγRI; KD calculated from the ratio of the kinetic constants (KD = koff/kon)
# Chain of UniProt P12314 (P12314 16-374): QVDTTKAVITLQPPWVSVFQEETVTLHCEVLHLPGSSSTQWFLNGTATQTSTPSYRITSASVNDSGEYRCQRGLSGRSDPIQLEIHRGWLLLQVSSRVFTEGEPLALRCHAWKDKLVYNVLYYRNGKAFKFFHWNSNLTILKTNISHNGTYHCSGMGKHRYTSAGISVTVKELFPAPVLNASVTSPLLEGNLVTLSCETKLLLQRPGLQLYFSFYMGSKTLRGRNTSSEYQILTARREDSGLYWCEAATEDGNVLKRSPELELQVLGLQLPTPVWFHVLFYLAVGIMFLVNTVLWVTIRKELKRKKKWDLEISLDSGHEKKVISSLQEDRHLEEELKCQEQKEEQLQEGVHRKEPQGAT
# Chain of UniProt P12318 (P12318 34-317): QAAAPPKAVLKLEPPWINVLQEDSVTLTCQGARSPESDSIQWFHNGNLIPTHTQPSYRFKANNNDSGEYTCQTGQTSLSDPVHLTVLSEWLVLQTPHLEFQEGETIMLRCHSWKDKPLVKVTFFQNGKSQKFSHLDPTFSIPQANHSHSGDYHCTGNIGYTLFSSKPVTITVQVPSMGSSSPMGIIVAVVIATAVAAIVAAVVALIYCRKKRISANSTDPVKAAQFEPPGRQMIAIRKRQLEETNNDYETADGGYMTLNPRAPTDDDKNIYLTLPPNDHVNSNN
# Chain of UniProt P31994 (P31994 43-310): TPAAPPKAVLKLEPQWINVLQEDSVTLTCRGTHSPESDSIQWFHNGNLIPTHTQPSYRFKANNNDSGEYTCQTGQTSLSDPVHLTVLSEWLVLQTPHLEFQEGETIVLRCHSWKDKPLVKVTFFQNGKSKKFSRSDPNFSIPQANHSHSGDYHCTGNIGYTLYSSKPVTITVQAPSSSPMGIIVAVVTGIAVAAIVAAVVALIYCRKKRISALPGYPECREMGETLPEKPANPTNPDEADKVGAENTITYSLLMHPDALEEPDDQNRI
# Chain of UniProt P08637 (P08637 17-254): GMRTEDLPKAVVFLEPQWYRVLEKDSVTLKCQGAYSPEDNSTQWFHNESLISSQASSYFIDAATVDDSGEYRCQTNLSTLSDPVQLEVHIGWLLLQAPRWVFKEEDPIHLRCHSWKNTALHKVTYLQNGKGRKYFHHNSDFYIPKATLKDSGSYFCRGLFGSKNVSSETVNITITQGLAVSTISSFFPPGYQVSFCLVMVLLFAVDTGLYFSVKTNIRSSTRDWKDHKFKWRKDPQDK
Kd (FcγRIIB (SPR assay)),Kd (FcγRIIA H131 (SPR assay)),Kd (FcγRIIIA V158),Kd (FcγRIIA R131 (SPR assay)),Kd (FcγRIIIA F158),Kd (FcγRI (SPR assay)),Molecule
2840 nM,965 nM,–,–,–,–,"Ociperlimab (BGB-A1217), humanized IgG1 anti-human TIGIT antibody with wild-type IgG1 Fc"
–,–,555 nM,1020 nM,2180 nM,0.0406 nM,"Ociperlimab (BGB-A1217), humanized IgG1 anti-human TIGIT antibody with wild-type IgG1 Fc (antibody, V domains shown) VH: EVQLVESGGGLVQPGGSLRLSCAASGFTFSDYYMYWVRQAPGKGLEWVAYITKGGGSTYYPDSVKGRFTISRDNAKNTLYLQMNSLRAEDTAVYYCARQTNYDFTMDYWGQGTLVTVSS VL: EIVMTQSPATLSVSPGERATLSCKASQDVGTSVAWYQQKPGQAPRLLIYWASARHTGIPARFSGSGSGTEFTLTISSLQSEDFAVYYCQQYSSYPLTFGGGTKVEIK"
